{"source": "paper PMC5610242", "about": "“Stapled peptide inhibitors of RAB25 target context-specific phenotypes in cancer” (Nature Communications, 2017)", "key": {"RAB25": {"target": "T1, RAB25 (Homo sapiens, UniProt P57735)", "T1 construct": "GST-RAB25 (1–180) in pET41 Ek/LIC; made in house; host or cells: E. coli BL21", "T1 sequence (P57735 1-180)": "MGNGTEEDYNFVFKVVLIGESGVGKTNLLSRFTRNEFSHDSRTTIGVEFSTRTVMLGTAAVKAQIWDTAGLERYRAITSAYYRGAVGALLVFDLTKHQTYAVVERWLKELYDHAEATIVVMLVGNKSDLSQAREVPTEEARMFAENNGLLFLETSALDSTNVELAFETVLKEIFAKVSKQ", "assay": "Fluorescence polarization binding of FITC-labeled RFP peptides to RAB25", "conditions": "FP, 30 min room temperature", "procedure": "(§1) Fluorescence polarization assays were performed with for GST-RAB25 and GST-RAB11a to quantify binding to FITC-labeled unmodified and stapled RFP peptides. Initial fluorescence polarization measurements for RFP1−RFP13 were made by incubating FITC-RFP peptides (25 nM) with threefold dilutions of a given protein in FP buffer, consisting of 20 mM Tris pH 8.0, 150 mM NaCl, 5 mM MgCl2, 2 mM DTT, 10 μM GTP and 2% glycerol. Dilutions and incubations were performed in 96-well, black flat-bottom plates (Nunc) to a total volume of 100 μL, and equilibrated at room temperature for 30 min. Polarization was measured on a Spetramax-M5 multi-label plate reader (Molecular Devices) with λ ex = 485 nm and λ em = 525 nm. Polarization values were determined using the equation: P = (V − H)/(V + H), where P denotes polarization, V denotes vertical emission intensity and H represents horizontal emission intensity. Fraction bound was calculated using the equilibrium maximum polarization value obtained for a given protein among ligands, to which background-subtracted fluorescence polarization values were internally normalized. Fluorescence polarization measurements for FITC-RFP14, 24, 26, 31, and 32 were performed as detailed above with the exception that 10 nM FITC-ligand was used."}, "[1]": {"assay": "Circular dichroism spectroscopy and thermal denaturation", "format": "physicochemical", "conditions": "50 μM peptide in deionized water, 190–260 nm, room temperature", "procedure": "Circular dichroism spectroscopy experiments were performed on a Jasco J-170 using a quartz cuvette (path length: 0.1 cm). Peptides were dissolved to 50 μM in deionized water and CD measurements were recorded at one nm increments between 190 and 260 nm, at room temperature. Thermal denaturation experiments were performed by recording CD absorbance at 222 nm at one-degree increments from 10 to 90 °C using a thermostat-controlled cuvette chamber. Raw denaturation data were fit to sigmoidal curves with Prizm 5 software, and the half-maximal temperature was reported as the peptide T m."}, "[2]": {"target": "T2, RAB11a (activated Q70L mutant) (Homo sapiens, UniProt P62491, Q70L)", "T2 construct": "GST-RAB11a (1–173, Q70L mutant) in pGEX5x-1; made in house; host or cells: E. coli BL21", "T2 sequence (P62491 1-173 Q70L)": "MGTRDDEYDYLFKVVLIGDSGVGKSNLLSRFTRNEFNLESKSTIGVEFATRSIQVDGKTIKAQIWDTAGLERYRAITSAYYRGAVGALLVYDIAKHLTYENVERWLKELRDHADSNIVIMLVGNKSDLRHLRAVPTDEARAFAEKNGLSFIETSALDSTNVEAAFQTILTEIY", "assay": "Fluorescence polarization binding of FITC-labeled RFP peptides to RAB11a", "conditions": "FP, 25 nM FITC-RFP peptide, 30 min room temperature", "procedure": "as §1"}, "MCF7 cells": {"system": "MCF7 cells", "assay": "Confocal fluorescence microscopy for peptide cellular penetration", "format": "in vitro ADME", "conditions": "5 μM FITC-labeled peptide, 10% FBS-containing RPMI, 8 h, 37 °C", "procedure": "MCF7 cells were grown in 8-well chamber slides (Ibidi) and treated with FITC-labeled RFPs (5 μM) in 10% FBS-containing RPMI for 8 h at 37 °C. Cells were washed 5× in PBS, fixed in 2% paraformaldehyde/PBS and stained with DAPI according to the manufacturer’s protocol (Sigma). A coverslip was mounted onto the slide and confocal fluorescence microscopy performed with an Olympus DSU spinning disk confocal microscope (Olympus Corporation of the Americas, Center Valley, PA) with a Hamamatsu model C9100 EM-CCD camera (Hamamatsu Photonics, Skokie, IL) run by SlideBook v5.0 software (Intelligent Imaging Innovations, Denver, CO). Post-acquisition processing (multi-channel overlay) was performed using ImageJ software (NIH). Results are representative of images taken from three fields across the same well in at least two biological replicates."}, "[3]": {"target": "T3, GST-RAB11a (1–173, Q70L mutant) (UniProt P62491 1-173, Q70L)", "T3 construct": "vector pGEX5x-1; 10 μM GTP in the assay buffer; source: BL21 cells, purified (glutathione sepharose, Superdex 75 gel filtration)", "T3 sequence (looked up)": "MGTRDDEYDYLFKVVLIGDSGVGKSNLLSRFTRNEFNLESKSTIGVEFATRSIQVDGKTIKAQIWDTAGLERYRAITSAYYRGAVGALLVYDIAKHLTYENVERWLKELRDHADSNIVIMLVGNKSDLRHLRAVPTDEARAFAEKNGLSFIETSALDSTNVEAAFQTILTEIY", "assay": "fluorescence polarisation; FITC-peptide 25 nM with threefold dilutions of GST-RAB protein; 20 mM Tris pH 8.0, 150 mM NaCl, 5 mM MgCl2, 2 mM DTT, 10 μM GTP, 2% glycerol; room temperature, 30 min; apparent Kd", "conditions": "both partners purified"}, "His6-RAB25 (1–180) [4]": {"target": "T4, His6-RAB25 (1–180) (UniProt P57735 1-180)", "T4 chain": "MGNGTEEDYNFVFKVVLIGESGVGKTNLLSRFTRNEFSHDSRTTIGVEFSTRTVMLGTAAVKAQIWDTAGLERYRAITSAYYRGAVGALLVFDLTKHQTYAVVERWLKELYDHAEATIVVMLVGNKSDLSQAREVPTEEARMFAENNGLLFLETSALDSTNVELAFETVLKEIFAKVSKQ", "assay": "competition with bio-RFP14 (ALPHAscreen)"}, "His6-RAB25 (1–180) [5]": {"target": "T5, His6-RAB25 (1–180) (UniProt P57735 1-180)", "T5 construct": "RAB25, residues 1-180; vector pET28; also called H6-RAB25; His6-labeled RAB25; source: BL21 cells, purified (Ni-NTA, Superdex 75 gel filtration)", "T5 sequence (looked up)": "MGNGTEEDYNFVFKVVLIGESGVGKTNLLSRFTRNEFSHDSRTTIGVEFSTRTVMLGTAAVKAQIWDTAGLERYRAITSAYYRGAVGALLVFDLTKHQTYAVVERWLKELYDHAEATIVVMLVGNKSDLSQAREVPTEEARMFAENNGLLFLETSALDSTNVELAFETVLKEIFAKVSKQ", "assay": "AlphaScreen or HTRF; competition: soluble peptide or protein at varied concentration with biotin-RFP14 and H6-RAB25 (0.2 μM each); streptavidin donor and Ni2+-NTA acceptor beads; FP buffer with 0.1% BSA; room temperature", "conditions": "both partners purified"}}, "note": "Bridge positions count the residues as written; N and C are the ends. Square brackets hold non-standard residues; d marks the D form. Ends that are not written are not given here. Peptide text beside a SMILES is read from it. * marks the point of attachment. FITC = O=C1OC2(c3ccc(O)cc3Oc3cc(O)ccc32)c2ccc(NC(=S)*)cc21; monoethylene glycol = monoethylene glycol moiety; Met(O) = CS(=O)CC[C@H](N)C(=O)O; S5 = C=CCCC[C@](C)(N)C(=O)O; Nle = CCCC[C@H](N)C(=O)O; PEG = not defined here; βAla = NCCC(=O)O"}
{"molecule": "RFP4: unmodified FIP4 peptide ({FITC-PEG}-EQEEINFRLRQYMDKIILAILDHNPSILEIKH; reading uncertain)", "values": [{"measurement": "binding to RAB25 (in words)", "setting": "RAB25; 25 nM FITC-RFP peptide", "result": "micromolar affinities"}, {"measurement": "CD spectrum, secondary structure", "setting": "[1]", "result": "partially disordered peptide folds"}, {"measurement": "binding to RAB11a (in words)", "setting": "[2]", "result": "micromolar affinities"}]}
{"molecule": "CCCC[C@@H]1NC(=O)[C@H](C(C)C)NC(=O)[C@@](C)(NC(=O)[C@@H](NC(=O)[C@H](CC(C)C)NC(=O)[C@H](CC(C)C)NC(=O)[C@H](CCCNC(=N)N)NC(=O)[C@H](CC(=O)O)NC(=O)[C@@H](NC(=O)[C@H](Cc2ccc(O)cc2)NC(=O)[C@H](CC(N)=O)NC(=O)[C@H](CCC(=O)O)NC(=O)[C@H](CC(C)C)NC(=O)[C@H](CCC(=O)O)NC(=O)[C@H](CCCNC(=N)N)NC(=O)[C@@H](NC(=O)[C@H](CCC(N)=O)NC(=O)[C@H](CCCNC(=N)N)NC(=O)CCNC(=O)[C@@H](N)Cc2c[nH]c3ccccc23)C(C)C)[C@@H](C)CC)C(C)C)CCCC=CCCC[C@@](C)(C(=O)N[C@H](C(=O)N2CCC[C@H]2C(=O)N[C@@H](CC(N)=O)C(=O)N[C@H](C(=O)N[C@@H](CC(C)C)C(=O)N[C@@H](CCCNC(=N)N)C(=O)N[C@H](C(=O)N2CCC[C@H]2C(=O)N[C@@H](CCCNC(=N)N)C(N)=O)[C@@H](C)CC)[C@@H](C)CC)[C@@H](C)O)NC(=O)[C@H](CCC(=O)O)NC1=O", "note": "[RFP14] (H-W[βAla]RQVRELENYIDRLLV[S5]V[Nle]E[S5]TPNILRIPR-NH2; staple 18-22)", "values": [{"measurement": "Kd", "setting": "RAB25; 10 nM FITC-ligand, GST-RAB25, FP buffer pH 8.0 with 10 μM GTP, mean with 95% C.I., triplicate, read-out: apparent Kd (95% C.I.) RAB25", "result": 40, "unit": "nM"}, {"measurement": "cellular uptake and distribution", "setting": "MCF7 cells", "result": "significant cellular uptake and distribution throughout the cytosol and nucleus"}, {"measurement": "cellular uptake and distribution", "setting": "MCF7 cells; listed as FITC-RFP14", "result": "comparable cellular uptake"}]}
{"molecule": "{FITC-monoethylene glycol}-KQEEINFRLQDYIDRIIVAI[Met(O)]ETNPSILEVK", "note": "[RFP5]", "values": [{"measurement": "fold lower affinity than the unoxidised peptide", "setting": "[3]", "result": "~5", "unit": "fold"}]}
{"molecule": "GST-FIP3 (649–756) (domain or fragment, UniProt O75154 649-756, looked up, Rab11-FIP3 (Class-II FIP), residues 649-756; vector pGEX 6P-1; no cleavage of GST is described; also called FIP3 protein (residues 649–756); source: BL21 cells, purified (glutathione sepharose, Superdex 75 gel filtration)) MGLQEYHSRARESELEQEVRRLKQDNRNLKEQNEELNGQIITLSIQGAKSLFSTAFSESLAAEISSVSRDELMEAIQKQEEINFRLQDYIDRIIVAIMETNPSILEVK", "values": [{"measurement": "IC50", "setting": "His6-RAB25 (1–180) [4]", "result": "> 10000", "unit": "nM"}, {"measurement": "binding result", "setting": "His6-RAB25 (1–180) [5]", "result": "binds"}]}
